Positions count from the first letter of the chain named.
B1: Fc603 (other)
chain: DKTHTCPPCPAPELLGGPSVFLFPPKPKDTLMISRTPEVTCVVVDVSHEDPEVKFNWYVDGVEVHNAKTKPREEQYNSTYRVVSVLTVLHQDWLNGKEYKCKVSNKALPAPIEKTISKANGQPREPQVYTLPPSRDELTKNQVSLTCLVKGFYPSDIAVEWVSNGQPENNYKTTPPVLDSDGSFFLYSKLTVDKSRWQQGNVFSCSVIHEALHNHYTQKSLSLSPGK
notes: Aglycosylated Fc fragment (E. coli, pPelBFLAG), assayed on spheroplasts; not shown: C-terminal FLAG tag from pPelBFLAG
B2: Fc606 (other)
chain: B1 chain with N105S
notes: as for B1
B3: Fc605 (other)
chain: B1 chain with N120Q, A158D
notes: as for B1
B4: Fc604 (other)
chain: B1 chain with K118I
notes: as for B1
B5: Fc607 (other)
chain: B1 chain with H4Y, E49K, N105S, N120K, G121V
notes: as for B1
B6: Fc608 (other)
chain: B1 chain with N120K, G121V, K172E
notes: as for B1

biological target: T1, extracellular domain of recombinant glycosylated FcγRIa/CD64 (R&D Systems) labeled with FITC (human, UniProt P12314 16-292, FITC-labeled; glycosylated); assay: flow cytometry of E. coli spheroplasts labeled with FcγRIa-FITC (summary in Example 3)
T1 construct: extracellular domain; it is not restated for the bought reagent; also called FcγRIa-FITC; FcγRI-FITC
T1 sequence (P12314 16-292): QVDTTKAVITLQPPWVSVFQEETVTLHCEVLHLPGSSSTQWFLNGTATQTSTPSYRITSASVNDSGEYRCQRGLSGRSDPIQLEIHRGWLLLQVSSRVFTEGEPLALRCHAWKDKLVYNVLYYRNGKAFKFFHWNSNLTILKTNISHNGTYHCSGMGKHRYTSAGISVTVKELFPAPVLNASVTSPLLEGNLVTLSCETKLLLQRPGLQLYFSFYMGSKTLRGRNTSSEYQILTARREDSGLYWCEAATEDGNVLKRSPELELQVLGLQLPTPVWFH

binding result | Binder
binds | B1
binds | B2
binds | B3
binds | B4
binds | B5
binds | B6

From patent US20100330076A1 (RESEARCH DEVELOPMENT FOUNDATION, published 2010)
